Assay results: patent US20210270842A1 (DYAX, published 2021)
Where “and” joins values, the source holds several entries; their conditions need not be identical. Equal values may be shown once.

Tests used:
[1] = target: T1, intact high molecular weight kininogen (HMWK) (Homo sapiens, UniProt P01042 19-644); assay: optimized sandwich ELISA: M004-B04 capture, detection 11H05 + 13B12; value = C of the printed 4-P fit; the curve has no upper plateau in the range: last point about 0.95 at about 250 ng/mL, fitted line about 1.5 at 1000 ng/mL, so C and D are extrapolated
T1 construct: also called intact HMWK; 1-chain HMWK
T1 sequence: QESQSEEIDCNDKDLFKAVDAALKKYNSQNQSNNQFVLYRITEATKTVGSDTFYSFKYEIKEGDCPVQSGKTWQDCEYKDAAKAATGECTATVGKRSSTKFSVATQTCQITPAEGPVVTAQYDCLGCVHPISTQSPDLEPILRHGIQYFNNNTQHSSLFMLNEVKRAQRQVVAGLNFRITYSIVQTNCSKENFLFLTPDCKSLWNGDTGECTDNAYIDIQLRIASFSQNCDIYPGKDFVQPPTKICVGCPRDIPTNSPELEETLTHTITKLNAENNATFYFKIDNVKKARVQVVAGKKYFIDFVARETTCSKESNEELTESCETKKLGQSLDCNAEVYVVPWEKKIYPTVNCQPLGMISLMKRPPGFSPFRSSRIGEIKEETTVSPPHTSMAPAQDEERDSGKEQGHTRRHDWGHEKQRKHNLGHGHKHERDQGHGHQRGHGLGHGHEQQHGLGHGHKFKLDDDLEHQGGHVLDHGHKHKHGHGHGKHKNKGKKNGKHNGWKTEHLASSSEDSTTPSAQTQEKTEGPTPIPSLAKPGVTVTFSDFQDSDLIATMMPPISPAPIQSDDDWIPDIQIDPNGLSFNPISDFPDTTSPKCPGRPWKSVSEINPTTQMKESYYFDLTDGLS
Method: (§1) The following day, the plate was washed and then blocked with 2% BSA (Protease/IgG free) in PBS buffer. Following a wash, samples containing cleaved HMWK in 0.1% BSA buffer in PBS with 0.05% Tween-20 (2-Chain HMWK assay buffer). Purified protein standards (e.g., 2-chain HMWK, intact HMWK or LMWK) were spiked into HMWK-deficient plasma and diluted 1:320 in 2-chain HMWK assay buffer. Following plate washing with PBST, a mixture of 2 mouse monoclonal antibodies (11H05 and 13B12) at 1 μg/mL in 2-chain HMWK assay buffer were added for 1 hour at room temperature. Unbound detection antibodies were washed and a 1:2000 dilution of goat anti-mouse secondary antibody conjugated to horseradish peroxidase (HRP) was added. The assay containing the secondary antibody was incubated for 1 hour at room temperature, and unbound secondary antibody was removed by washing with 2-chain HMWK assay buffer. Signal was detected by the addition of 3,3′,5,5′-tetramethylbenzidine (TMB), an HRP substrate. The reaction was stopped with phosphoric acid. Hydrolysis of a TMB substrate was detected using a microplate reader at 450 nm-630 nm (FIG. 3). […] Using these immunoassay conditions, specifically binding to cleaved HMWK was detected.

[2] = target: T2, cleaved high molecular weight kininogen (HMWK) (human, UniProt P01042 19-380; P01042 390-644); assay: optimized sandwich ELISA: M004-B04 capture, detection 11H05 + 13B12; value = C, midpoint of the printed 4-P fit; in-well concentration
T2 construct: also called cleaved HMWK; 2-chain HMWK
T2 sequence 1: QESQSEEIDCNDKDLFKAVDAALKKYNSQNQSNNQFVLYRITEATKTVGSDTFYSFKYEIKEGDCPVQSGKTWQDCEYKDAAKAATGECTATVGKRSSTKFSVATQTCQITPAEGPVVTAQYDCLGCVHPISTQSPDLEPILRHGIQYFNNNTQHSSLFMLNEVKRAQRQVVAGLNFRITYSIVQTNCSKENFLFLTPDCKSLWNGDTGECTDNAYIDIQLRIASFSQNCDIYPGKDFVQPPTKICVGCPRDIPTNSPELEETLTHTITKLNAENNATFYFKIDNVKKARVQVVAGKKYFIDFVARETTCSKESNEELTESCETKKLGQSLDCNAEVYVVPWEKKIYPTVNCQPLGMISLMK
T2 sequence 2: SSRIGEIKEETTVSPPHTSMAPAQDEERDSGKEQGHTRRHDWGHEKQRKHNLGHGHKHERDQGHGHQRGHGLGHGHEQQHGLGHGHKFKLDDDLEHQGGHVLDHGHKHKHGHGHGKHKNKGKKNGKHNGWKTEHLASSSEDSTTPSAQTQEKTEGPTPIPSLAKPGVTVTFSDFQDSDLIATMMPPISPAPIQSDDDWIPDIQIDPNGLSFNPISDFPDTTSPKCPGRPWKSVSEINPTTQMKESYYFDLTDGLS
Method: as §1

[3] = target: T2, cleaved high molecular weight kininogen …; assay: ELISA on coated M004-B04, 2-chain HMWK titrated after preincubation of the plate with competitor HKH20 peptide at 250 µg/mL; value = C of the printed 4-P fit; squares, right-shifted curve (the callout box on the graph names this curve GCP28: see recheck)
Method: as §1, with “Following” for “The following day, the plate was washed and then blocked with 2% BSA (Protease/IgG free) in PBS buffer. Following a wash, samples containing cleaved HMWK in 0.1% BSA buffer in PBS with 0.05% Tween-20 (2-Chain HMWK assay buffer). Purified protein standards (e.g., 2-chain HMWK, intact HMWK or LMWK) were spiked into HMWK-deficient plasma and diluted 1:320 in 2-chain HMWK assay buffer. Following”
To perform the assay, the kininogen peptides were diluted to 250 μg/mL and allowed to preincubate on assay plate. Then, purified 2-chain HMWK in deficient human plasma was diluted 160 and then added to plate.

[4] = target: T1, intact high molecular weight kininogen …; assay: sandwich ELISA: Fab coated on 96-well plate, kininogen titrated, detection 11H05 + 13B12 and goat anti-mouse-HRP; value = C, midpoint of the printed 4-P fit; 1-chain HMWK in SBT buffer; weak signal: only two points drawn (about 0.2 at 200, about 0.5 at 2000), fitted top 0.627 against 2.85 for 2-chain HMWK
Description: Purified cleaved HMWK was spiked into SBT assay buffer (circles) or HMWK-deficient plasma (squares). Purified intact HMWK was spiked into SBT assay buffer (triangles). Purified LMWK was spiked into SBT assay buffer (diamonds). The y-axis presents the ELISA signal in absorbance units, and the x-axis presents the concentration of kininogen in μg/mL.
as §1, with “The assay containing the secondary antibody was incubated for 1 hour at room temperature, and unbound secondary antibody was removed by washing with 2-chain HMWK assay buffer.” left out, “The reaction was stopped with phosphoric acid.” left out

B1: 559B-M0004-B04 (Fab, V domains shown)
VH: EVQLLESGGGLVQPGGSLRLSCAASGFTFSFYVMVWVRQAPGKGLEWVSGISPSGGNTAYADSVKGRFTISRDNSKNTLYLQMNSLRAEDTAVYYCARKLFYYDDTKGYFDFWGQGTLVTVSS
VL: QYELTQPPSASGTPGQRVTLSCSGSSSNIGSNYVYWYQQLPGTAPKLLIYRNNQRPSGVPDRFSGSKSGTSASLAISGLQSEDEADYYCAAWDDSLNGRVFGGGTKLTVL
notes: also called M004-B04
[1]
  EC50: 0.355 µg/mL
[2]
  EC50: 0.00902 µg/mL and 0.0207 µg/mL and 0.0116 µg/mL
[3]
  EC50: 0.0375 µg/mL
[4]
  EC50: 1110 µg/mL
